One test has as its target T1, hAng-2FD-mFc K-432-N (human, UniProt O15123 282-496).
T1 construct: not shown: mouse Fc
T1 chain: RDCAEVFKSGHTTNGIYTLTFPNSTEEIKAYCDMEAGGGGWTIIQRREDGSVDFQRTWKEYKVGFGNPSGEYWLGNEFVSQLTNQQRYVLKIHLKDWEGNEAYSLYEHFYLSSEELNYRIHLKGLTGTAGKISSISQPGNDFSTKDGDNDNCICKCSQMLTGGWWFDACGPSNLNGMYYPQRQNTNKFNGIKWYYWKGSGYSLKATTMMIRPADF
In words: SPR 25C, hAng-2FD-mFc captured on anti-mFc, 100 nM analyte.

The target of a further test is T2, hAng-2FD-mFc N-467-G (human, UniProt O15123 282-496).
T2 construct: not shown: mouse Fc
T2 chain: T1 chain with N151K, N186G
The description is as above.

A further test has as its target T3, hAng-2FD-mFc I-434-M (human, UniProt O15123 282-496).
T3 construct: not shown: mouse Fc
T3 chain: T1 chain with N151K, I153M
The description is as above.

The target of another test is T4, hAng-2FD-mFc S-480-P (human, UniProt O15123 282-496).
T4 construct: not shown: mouse Fc
T4 chain: T1 chain with N151K, S199P
Described as above.

A further test deals with T5, Monkey Ang-2FD-hFc (monkey (Macca fascicularis)).
T5 construct: also called dimeric monkey Ang-2FD
In words: blocking ELISA, 16.67 nM antibody, Ang-2FD-hFc to coated hTie-2-mFc.

The target of a further test is T6, Human Ang-2FD-hFc (human).
T6 construct: also called dimeric human Ang-2FD; human Ang-2FD protein conjugated to human IgG
Described as above.

In the next test the target is T7, Mouse Ang-2FD-hFc (mouse (Mus musculus)).
T7 construct: also called dimeric mouse Ang-2FD
Described as above.

The target of another test is T8, hAng-1-WT (human, UniProt Q15389 20-498, limits assumed).
T8 construct: a tag is not mentioned there; also called full-length wild-type human Ang-1
T8 sequence (looked up): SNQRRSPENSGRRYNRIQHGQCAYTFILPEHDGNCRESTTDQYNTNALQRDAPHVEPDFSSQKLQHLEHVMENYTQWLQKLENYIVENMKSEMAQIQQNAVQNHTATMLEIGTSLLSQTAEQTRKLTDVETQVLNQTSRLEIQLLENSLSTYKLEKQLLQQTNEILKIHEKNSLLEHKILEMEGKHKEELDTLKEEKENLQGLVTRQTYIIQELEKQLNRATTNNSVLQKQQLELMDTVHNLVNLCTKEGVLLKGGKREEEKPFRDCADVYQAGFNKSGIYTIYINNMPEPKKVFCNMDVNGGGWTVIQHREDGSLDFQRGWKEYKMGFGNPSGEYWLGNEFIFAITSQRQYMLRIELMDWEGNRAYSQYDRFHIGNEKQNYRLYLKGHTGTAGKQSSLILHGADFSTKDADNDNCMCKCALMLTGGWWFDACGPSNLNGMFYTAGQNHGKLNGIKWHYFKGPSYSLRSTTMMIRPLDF
In words: SPR, 1 uM blocker premixed with 10 nM hAng-1-WT, over hTie-2-mFc surface; RU of hAng-1 bound. The method, then: In this experiment, a human Tie-2 full-length extracellular domain construct (hTie-2-mFc-ecto) was amine-coupled on a BIACORE™ chip to create a receptor coated surface. […] The equilibrated solutions were injected over the receptor surfaces at 5 μL/min for 5 minutes at 25° C.
On the technique in general: SPR reads the build-up and loss of mass on a sensor chip optically.

Residue numbers refer to the chain shown, from its start.

T5 sequence (chain, as listed by the source limits assumed): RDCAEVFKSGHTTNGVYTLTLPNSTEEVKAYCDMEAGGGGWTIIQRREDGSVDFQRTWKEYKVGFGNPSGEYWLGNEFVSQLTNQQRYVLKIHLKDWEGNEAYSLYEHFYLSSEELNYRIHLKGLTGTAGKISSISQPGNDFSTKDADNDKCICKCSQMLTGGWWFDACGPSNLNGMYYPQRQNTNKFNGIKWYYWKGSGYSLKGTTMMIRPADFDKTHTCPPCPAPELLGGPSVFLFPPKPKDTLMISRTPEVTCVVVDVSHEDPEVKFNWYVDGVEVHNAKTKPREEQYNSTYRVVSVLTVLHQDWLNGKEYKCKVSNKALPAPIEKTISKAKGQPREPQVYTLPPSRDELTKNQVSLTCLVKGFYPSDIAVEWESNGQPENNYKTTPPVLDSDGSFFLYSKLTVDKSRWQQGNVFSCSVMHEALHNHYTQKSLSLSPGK
T7 sequence (chain, as listed by the source limits assumed): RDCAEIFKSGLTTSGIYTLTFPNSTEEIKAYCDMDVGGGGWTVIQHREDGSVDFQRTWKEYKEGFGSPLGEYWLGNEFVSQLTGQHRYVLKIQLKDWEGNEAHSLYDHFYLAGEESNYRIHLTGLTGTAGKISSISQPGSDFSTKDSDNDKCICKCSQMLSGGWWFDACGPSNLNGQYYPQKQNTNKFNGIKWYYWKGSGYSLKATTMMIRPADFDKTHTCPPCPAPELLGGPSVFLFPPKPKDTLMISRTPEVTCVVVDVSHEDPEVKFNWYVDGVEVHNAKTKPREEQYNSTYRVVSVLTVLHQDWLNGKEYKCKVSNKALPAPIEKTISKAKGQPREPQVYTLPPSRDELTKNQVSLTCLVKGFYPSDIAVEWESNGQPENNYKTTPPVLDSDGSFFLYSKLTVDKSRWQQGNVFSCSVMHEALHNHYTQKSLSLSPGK
T6 sequence (chain, as listed by the source limits assumed): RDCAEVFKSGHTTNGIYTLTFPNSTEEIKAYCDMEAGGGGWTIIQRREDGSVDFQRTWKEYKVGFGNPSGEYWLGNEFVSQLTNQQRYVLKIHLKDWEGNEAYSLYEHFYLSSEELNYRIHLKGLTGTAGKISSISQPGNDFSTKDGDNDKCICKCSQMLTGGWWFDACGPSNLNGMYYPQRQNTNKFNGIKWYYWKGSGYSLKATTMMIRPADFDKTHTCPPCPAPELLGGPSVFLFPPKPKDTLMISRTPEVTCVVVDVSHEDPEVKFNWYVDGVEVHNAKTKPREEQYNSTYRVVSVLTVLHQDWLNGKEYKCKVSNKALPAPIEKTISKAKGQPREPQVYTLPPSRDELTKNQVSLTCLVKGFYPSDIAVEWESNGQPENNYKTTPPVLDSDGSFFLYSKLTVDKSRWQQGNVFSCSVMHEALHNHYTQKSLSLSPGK

B1: H1H744N (antibody, V domains shown)
VH: QVQLVQSGVEVKKPGASVKVSCKTSGYTFSNNGFSWVRQAPGQGLEWLGWISGYNGNTNYAQKFQGRVTMTTDTSTSTAYMELRTLRSDDTAVYYCARDQDYSNFHWLDPWGQGTLVTVAS
VL: DIQMTQSPSSVSASVGDRVIITCRASQGLSSWLAWYQQKPGTAPKLLIHSASSLQTGVPSRFSGSGSGTEFALTINSLQPEDFGTYYCQQANSFPLTFGGGTRVEIK
As for B1, the Kd with hAng-2FD-mFc K-432-N turned out to be 0.0487 nM; with hAng-2FD-mFc N-467-G it was 0.0772 nM; in the test with hAng-2FD-mFc I-434-M, 0.0318 nM; with hAng-2FD-mFc S-480-P it was 0.0225 nM. For the same molecule, the RU stood at 137 RU with hAng-2FD-mFc K-432-N, 139 RU with hAng-2FD-mFc N-467-G, 213 RU with hAng-2FD-mFc I-434-M and 228 RU with hAng-2FD-mFc S-480-P. The “T ½” value was 28.2 h in the test with hAng-2FD-mFc K-432-N, 16.9 h with hAng-2FD-mFc N-467-G, 43.1 h in the test with hAng-2FD-mFc I-434-M and 35.5 h with hAng-2FD-mFc S-480-P. Further, the “Percent Blocking of Ang-2FD Binding to Tie-2” value with Monkey Ang-2FD-hFc came out at 96.2%; in the test with Human Ang-2FD-hFc, 97.9%; in the test with Mouse Ang-2FD-hFc, 97.6%. For the same molecule, the “RU (average)” value with hAng-1-WT stood at 57 RU.

In general, Kd refers to the equilibrium constant for the complex coming apart.

The values above are taken from patent US20140112930A1 (published 2014).
